The values below come from the supplement of paper PMC9233669.

Variants at the floor of the assay were thinned out.

One series relates to biotinyl-Ile-oxazolone. Briefly: self-aminoacylation, catalytic enhancement (BIO) (fold over background); higher = more active; k-Seq, kA / k0A0; sequences stand for … in GGGAAUGGAUCCACAUCUACGAAUUC…UUCACUGCAGACUUGACGAAGCUG
The essentials:
(§1)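 Working in 50 μL HEPES/NaCl/KCl/MgCl2/CaCl2 buffer with 5% acetonitrile at pH 6.9–7.0, mutagenized RNA pools (0.43 μM; 21-nt variable region) were reacted with 2–1250 μM of each biotinyl-aminoacyl-oxazolone for 90 minutes at room temperature. Streptavidin capture followed, with quantification by triplicate qPCR and Illumina sequencing. Catalytic enhancement is reported as median kA over the uncatalyzed rate, the low-activity peak of a bimodal Gaussian fit to the data.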

Another series concerns biotinyl-Leu-oxazolone. Briefly: self-aminoacylation, catalytic enhancement (BLO) (fold over background); higher = more active; k-Seq, kA / k0A0; sequences stand for … in GGGAAUGGAUCCACAUCUACGAAUUC…UUCACUGCAGACUUGACGAAGCUG
In short, it runs like this:
as §1

In the next series the test system is biotinyl-Phe-oxazolone. Kind of series: self-aminoacylation, catalytic enhancement (BFO) (fold over background); higher = more active; k-Seq, kA / k0A0; sequences stand for … in GGGAAUGGAUCCACAUCUACGAAUUC…UUCACUGCAGACUUGACGAAGCUG
In short, it runs like this: as §1

The next series relates to biotinyl-Met-oxazolone. Kind of series: self-aminoacylation, catalytic enhancement (BMO) (fold over background); higher = more active; k-Seq, kA / k0A0; sequences stand for … in GGGAAUGGAUCCACAUCUACGAAUUC…UUCACUGCAGACUUGACGAAGCUG
The essentials:
as §1

The test system of another series is biotinyl-Trp-oxazolone. Kind of series: self-aminoacylation, catalytic enhancement (BWO) (fold over background); higher = more active; k-Seq, kA / k0A0; sequences stand for … in GGGAAUGGAUCCACAUCUACGAAUUC…UUCACUGCAGACUUGACGAAGCUG
The essentials: as §1

For another series, the system named is biotinyl-Val-oxazolone. Kind of series: self-aminoacylation, catalytic enhancement (BVO) (fold over background); higher = more active; k-Seq, kA / k0A0; sequences stand for … in GGGAAUGGAUCCACAUCUACGAAUUC…UUCACUGCAGACUUGACGAAGCUG
The essentials: as §1

Consider “AAAUUCGCUAAUAGUCGCAAG [Fam3.1 aminoacylation ribozyme variant]”, for which the self-aminoacylation in the series on biotinyl-Ile-oxazolone was 2.89; in the series with biotinyl-Leu-oxazolone it was 2.19; in the series with biotinyl-Phe-oxazolone it was 2.65; with biotinyl-Met-oxazolone it was 2.31; in the series on biotinyl-Trp-oxazolone, 2.09.
For the sequence “AAAUUUGCAAAUAGUCGCAAG [Fam3.1 aminoacylation ribozyme variant]”, the self-aminoacylation with biotinyl-Ile-oxazolone turned out to be 1.9; with biotinyl-Leu-oxazolone, 1.82; in the series with biotinyl-Phe-oxazolone, 2.27; in the series on biotinyl-Val-oxazolone, 1.37; with biotinyl-Met-oxazolone it was 1.35; with biotinyl-Trp-oxazolone, 1.82.
Consider “AAAUUUGCCAAUAGUCGCAAG [Fam3.1 aminoacylation ribozyme variant]”, for which the self-aminoacylation stood at 1.77 in the series on biotinyl-Ile-oxazolone; 1.76 in the series on biotinyl-Leu-oxazolone; 2.17 with biotinyl-Phe-oxazolone; 1.65 with biotinyl-Val-oxazolone; 1.69 in the series with biotinyl-Met-oxazolone; 2.14 in the series on biotinyl-Trp-oxazolone.
In the case of “AAAUUUGCUAAUAGUCCCAAG [Fam3.1 aminoacylation ribozyme variant]”, the self-aminoacylation is 1.24 with biotinyl-Ile-oxazolone; 0.923 with biotinyl-Leu-oxazolone; 1.68 in the series with biotinyl-Phe-oxazolone; 1.03 in the series with biotinyl-Val-oxazolone; 0.644 in the series with biotinyl-Met-oxazolone; 0.979 in the series with biotinyl-Trp-oxazolone.
With “AAAUUUGCUAAUAGUCGCACG [Fam3.1 aminoacylation ribozyme variant]”, the self-aminoacylation in the series on biotinyl-Ile-oxazolone stood at 1.58; in the series on biotinyl-Leu-oxazolone, 1.42; with biotinyl-Phe-oxazolone, 1.47; in the series with biotinyl-Val-oxazolone, 1.72; in the series with biotinyl-Met-oxazolone, 1.38; in the series with biotinyl-Trp-oxazolone, 1.81.
With “AAAUUUUCUAAUAGUCGCAAG [Fam3.1 aminoacylation ribozyme variant]”, the self-aminoacylation in the series on biotinyl-Ile-oxazolone turned out to be 2.15; in the series with biotinyl-Leu-oxazolone it was 2.46; in the series with biotinyl-Phe-oxazolone, 2.42; in the series on biotinyl-Val-oxazolone, 2.11.
Turning to “AACUUAGCUAAUAGUCGCAAG [Fam3.1 aminoacylation ribozyme variant]”, the self-aminoacylation with biotinyl-Ile-oxazolone amounted to 2.2; in the series on biotinyl-Leu-oxazolone, 3.27; with biotinyl-Phe-oxazolone, 2.75; in the series with biotinyl-Met-oxazolone, 2.42.
With “AACUUUGCUAACAGUCGCAAG [Fam3.1 aminoacylation ribozyme variant]”, the self-aminoacylation with biotinyl-Ile-oxazolone worked out at 2.17; in the series on biotinyl-Leu-oxazolone, 3.43; in the series with biotinyl-Phe-oxazolone it was 2.06; in the series with biotinyl-Met-oxazolone it was 2.15; in the series with biotinyl-Trp-oxazolone, 2.08.
In the case of “AACUUUGCUAAUAGUCGCAAC [Fam3.1 aminoacylation ribozyme variant]”, the self-aminoacylation in the series on biotinyl-Ile-oxazolone is 2.22; with biotinyl-Leu-oxazolone, 2.16; in the series with biotinyl-Phe-oxazolone it was 4.1; with biotinyl-Trp-oxazolone it was 2.59.
In the case of “AACUUUGCUAAUAGUCGCAAG [Fam3.1 aminoacylation ribozyme variant]”, the self-aminoacylation worked out at 2.22 with biotinyl-Ile-oxazolone; 2.46 in the series on biotinyl-Leu-oxazolone; 3.71 in the series on biotinyl-Phe-oxazolone; 2.2 in the series on biotinyl-Met-oxazolone; 2.41 with biotinyl-Trp-oxazolone.
Turning to “AACUUUGCUAAUAGUCGCACG [Fam3.1 aminoacylation ribozyme variant]”, the self-aminoacylation is 2.49 in the series with biotinyl-Ile-oxazolone; 2.15 in the series on biotinyl-Leu-oxazolone; 3.22 in the series with biotinyl-Phe-oxazolone; 2.05 in the series with biotinyl-Val-oxazolone; 3.12 with biotinyl-Trp-oxazolone.
With “AAGCGUGCUAAUAGUCGCAAG [Fam3.1 aminoacylation ribozyme variant]”, the self-aminoacylation with biotinyl-Ile-oxazolone was found to be 2.02; in the series on biotinyl-Phe-oxazolone, 4.08; in the series with biotinyl-Val-oxazolone, 2.05; in the series with biotinyl-Met-oxazolone, 2.62; in the series on biotinyl-Trp-oxazolone, 2.33.
For the sequence “AAGUUGGCUAAAAGUCGCAAG [Fam3.1 aminoacylation ribozyme variant]”, the values for the self-aminoacylation with biotinyl-Ile-oxazolone and with biotinyl-Phe-oxazolone were 2.01 and 3.1, respectively.
On to “AAGUUUCCUAAUAGUCGCAGG [Fam3.1 aminoacylation ribozyme variant]”, for which the self-aminoacylation in the series on biotinyl-Ile-oxazolone amounted to 2.09; in the series with biotinyl-Leu-oxazolone, 2.06; with biotinyl-Phe-oxazolone, 11.8; in the series with biotinyl-Met-oxazolone, 2.16.
As for “AAGUUUGCUAAUAUUCGCGAG [Fam3.1 aminoacylation ribozyme variant]”, the self-aminoacylation in the series with biotinyl-Ile-oxazolone was 2.04; with biotinyl-Phe-oxazolone it was 16.5; in the series with biotinyl-Met-oxazolone it was 2.02; with biotinyl-Trp-oxazolone, 3.31.
“AAGUUUUCUAACAGUCGCAAG [Fam3.1 aminoacylation ribozyme variant]”: the self-aminoacylation in the series on biotinyl-Ile-oxazolone came to 2.04; in the series on biotinyl-Phe-oxazolone, 3.07.
As to “AUACACCUAGGUCAUCGGGCG [Fam2.2 aminoacylation ribozyme variant]”, the self-aminoacylation was found to be 2.58 with biotinyl-Leu-oxazolone; 11 with biotinyl-Phe-oxazolone; 2.18 in the series with biotinyl-Val-oxazolone; 2.8 in the series with biotinyl-Met-oxazolone; 2.86 with biotinyl-Trp-oxazolone.
“AUCACCCUGGUCAUCAAGUGA [Fam2.1 aminoacylation ribozyme variant]”: the self-aminoacylation with biotinyl-Leu-oxazolone turned out to be 3.46; in the series on biotinyl-Phe-oxazolone, 14.2; with biotinyl-Val-oxazolone, 2.1; with biotinyl-Met-oxazolone, 3.75; with biotinyl-Trp-oxazolone, 4.8.
Regarding “AUUACCCUGGUCCUGGAGUGA [Fam2.1 aminoacylation ribozyme variant]”, the self-aminoacylation in the series on biotinyl-Ile-oxazolone turned out to be 2.07; in the series with biotinyl-Leu-oxazolone, 2.79; in the series on biotinyl-Phe-oxazolone, 10.7; in the series with biotinyl-Met-oxazolone, 3.13; in the series with biotinyl-Trp-oxazolone it was 3.33.
Take “AUUACCCUGGUGAGCGAGUGA [Fam2.1 aminoacylation ribozyme variant]”: the self-aminoacylation with biotinyl-Ile-oxazolone amounted to 2.4; in the series on biotinyl-Leu-oxazolone, 3.8; in the series with biotinyl-Phe-oxazolone, 22.2; with biotinyl-Met-oxazolone it was 3.94; in the series with biotinyl-Trp-oxazolone, 3.97.
As for “AUUCACCGAGCUCAUCGGGUG [Fam2.2 aminoacylation ribozyme variant]”, the self-aminoacylation with biotinyl-Ile-oxazolone turned out to be 2.4; in the series with biotinyl-Leu-oxazolone, 2.46; with biotinyl-Phe-oxazolone, 17.4; in the series on biotinyl-Val-oxazolone, 3.41; with biotinyl-Met-oxazolone, 2.08.
Take “AUUCACCUACGUCAUCGGGGG [Fam2.2 aminoacylation ribozyme variant]”: the self-aminoacylation in the series on biotinyl-Leu-oxazolone amounted to 2.68; with biotinyl-Phe-oxazolone it was 6.05; in the series on biotinyl-Val-oxazolone, 2.01.
With “AUUCACCUAGGACAUCGGGUA [Fam2.2 aminoacylation ribozyme variant]”, the self-aminoacylation with biotinyl-Ile-oxazolone was 2.02; with biotinyl-Leu-oxazolone it was 2.63; in the series with biotinyl-Phe-oxazolone, 7.17; in the series on biotinyl-Met-oxazolone, 2.72; in the series on biotinyl-Trp-oxazolone, 2.09.
